Source: the nanobody polyreactivity screen of Harvey et al. (2022)

Experiment: yeast display, Sf9 membrane polyspecificity reagent, FACS + sequencing; frameworks hold sequencing errors
In short: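 Nanobodies came from a synthetic yeast display library in Saccharomyces cerevisiae BJ5465, induced with galactose for 36–48 hours and stained for 1 hour at 4 °C with 10% biotinylated, detergent-solubilized Sf9 membrane reagent. Cells were enriched on streptavidin microbeads and then FACS-sorted, with low and high (top ~1%) gates set on anti-HA fluorescence for expression and streptavidin fluorescence for reagent binding. Each polyreactivity label reflects the gate a clone came from. Genes were amplified by colony PCR, sequenced by MiSeq 2 × 250 and filtered by CDR length.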

Row | Sequence | polyreactivity (PSR sort gate)
1 | PVQLQESGGGLVQAGGSLRLSCAESGNIFDADIMGWYRQAPGKERELVDCIADGGSTNYADSVKGSFTISRDNAKITVYLQMNSLKPEDTAVYYCAAIAYPDIPTCFDYDSDYFFRGQGTQVTVSS | low polyreactivity
2 | QVQLVESGGGLVQAGGSLRLSCAASGRIFDSYAMGWYRQAPGKERELVASITCSGGSTYADSVKGRFTSSRDNAKNTVYLQMNSLKPEDTAVYYFDYWGQGTQVTVSS | low polyreactivity
3 | QVQLVESGGGLVQAGGSLRLSCAASGSIFGIYAMGWYRQAPGKERELVADITYSGGSTYYADSVKGRFTISRDNAKNTVYLQMNSLKPEDTAVYYCAADWVYVNAWTGGWTYEYWGQGTQVTVSS | high polyreactivity
4 | QVQLVESGGGLVQAGGSLRLSCAASGSIFNGYDMGWYRQAPWKERELVAAISLSGDSTYYADSVKGRFTISRDNAKNTVYLQMNSLKPEDTAVYYCAKGTISSYSPYWYYDYSDYEYWGQGTQVTVSS | low polyreactivity
5 | QVQLVESGGGLVQAGGSLRLSCAASGRTFGTYAMGWYRQAPGKERELVAAITGSGDRTYYADSVKGRFTISRDNAKNTVYLQMNSLKPEDTAVYYCAAYSDRSYGYWGQGTQVTVSS | low polyreactivity
6 | QVQLVESGGGLVQAGGSHRLSCAASGRTFGHNAMGWYRQAPGKEMEFVASIRSGGITDYADSVKGRFTISRDNAKNTVYLQMNSLKPEDTAVYYCAADVLDWYDLLRDDYWGQGTQVTVSS | low polyreactivity
7 | QVQLVESGGGLVQAGGSLRLSCDASGNIFGLNAMGWYRQAPGKERELVSAISSGGSTNYADSVKGRFTISRDNAKNTVYLQMNSLKPEDTAVYYCAVQGSRYSYCYGYRFRTMDYWGQVTQVTVSS | high polyreactivity
8 | QVQLVESGGGLVQAGGSLRLSCAASGRTFYLYTMGWYRQAPGKERELVAAINGSGGSTYYADSVKGRFTISRDNAKNTVYLQMNSLKPEATAVYYCAVLYRYGYDYWGQGTQVTVSS | low polyreactivity
9 | QVQLVESGGGLVQAGGSLRLRCAASGSNFKHNDMGWSRPAPGKERELVAAISRSGGSTYYADSVKGRFTISRDNGKNTVYLPMNSLKPEDTAVYYCNAGRRTGRYGYWGQGTQVTVSS | high polyreactivity
10 | QVQLVESGGGLVQAGGSLRLSCAASGLIFYYNAMGWYRQAPGKERELVATIRGSGSSTYYADSVKGRFTISRDNAKNTVYLQMNSLKPEDTAVYYCAAKGYRCFRHGGYYFKFDYWGQGTQVTVSS | high polyreactivity
11 | QVQLQESGGGLVQAGGSLRLTCAASGYISYLQSMGLYRQAPVKERELVAGITLGTTTYNADSVKGRFTISPDNVQNTVYLQMNSLKPEYTAVYYCAVAVGHYPEFWYWGQGTQVTMSS | high polyreactivity
12 | QVQLVESGGGLVQAGGSLRLSCAASGGIFKRNTMGWYRQAPGKERELVAGISWTGGRTYYADSVKGRFTISSDNAKNNVYLPPNSLKPEDTAVYYCAAKPLQGVRRVEYWGQGTQVTVSS | high polyreactivity
13 | QVHLVESGGGLVHAGGSLRLSCAASGSTFPGYGMGWYRQAPGQERELVATNRNGGITNYADSVKGRFTISRDNAKNTVYLQMNSLKAEDTAVYYCAADVVQYLYYFRLDYWGQGTQVTVSS | low polyreactivity
14 | QVQLVESGGGLVQAGGSLRLSSAASGSTFTVNGMGWYSQAPGKERELVAAIDGGDGSTYYADSVKGRFTISRDNAKNTVYLQMTSLKPEDTAVYYCAADPPGFTQYGYWGQGTQVTVSS | low polyreactivity
15 | QVQLVESGGGLVQAGGSLRLSCAASGLIFRTYAMGWNRQAPGKERELVAAIRGGGSTNYADSVNGRFTISRDNAKNTVYLQMNSLKPEDTAVYYCAALVYAVTRRRVQGYGYDYWGQGTQVTVSS | low polyreactivity
16 | QVQLVESGGGLVPAGGSLRLSCAASGSTFIPNTMGWYRQAPGKERELVAAISRRGGSTNYADSVKGRFTISRDNAKNTVYLQMNSLKPEDTAVYYCAAVSPRRYRYDYWGQGTQVTVSS | low polyreactivity
17 | QVQLVESVGGLVQAGGSLRLSCAASVRTFSSYAMGWYRKPPGKERELVAVITSGSSTHYADSVKGRFTISRDNAKNTVYLQMNSLKPEDTAVYYCAARDIREIDCISYWYDYWGQGTQVTVSS | high polyreactivity
18 | QVQLVESGGGLVQAGGSLRLSCAASGRIFLGYTMGWYRQAPGKERELVAAISKSGDSTYYADSVKGRFTISRDNAKNTVYLQMNSLKPEDTAVYYCAKDYGGRLYYYWGQGTQVTVSS | high polyreactivity
19 | QVQLVESGGGLVQAGGSLRLSCAASGSTLARYAMGWYRQAPGKERELVAAISWIGGSTYYADSVKGRFTISRDNAKNTVYLQMNSLKPEDTAVYFCAKDTYPWYIRNRYDYWGQGSQVTVSS | high polyreactivity
20 | QVQLVESGGGLVQAGGSLRLSCAASGRTFRYYAMGWYRQAPGKERELVAAIDTSSGSTYYADSVKGRFTISRDYAKNTVYLQMNSLKPEDTAVYYCNANWWIPLIYDYWGQGTQVTVSS | low polyreactivity
21 | QVQLVESGGGLVQAGGSLRLSCAASGRTFDQYAMGWYTPAPGKARELVADITWSGGTTRYADSVKRRFTISRDNAKNTVYLQMNSLKPEDTAVYYCAVDVTCGYNYWGQGTQVNVSS | low polyreactivity
22 | QVQLVESGGGLVQAGGSLRLSCAASGLTFSTNDMGWYRQAPGKEREFVAAISFNGGSTYYADSVKGRFTLSRDNAKNTVYLQMNSLKPEDTAVYYCAAGSDYGLYYGFDFWGQGTQVTVSS | high polyreactivity

Row | Sequence | polyreactivity (PSR sort gate)
23 | QVQLVESGGGLVQAGGSLRLSCAASGRTFSYYAMGWYRQAPGKERELVASISGGGRTNYADSVKGRFTISRDNAKITVYLQMNSVKPEDTAVYYCAASYQITRQYKRGYWGQGTQVTVSS | high polyreactivity
24 | QVQLVESGGGLVQAGGSLRLSCAASGRIFNLYVMGWYRQAPGKERELVATISSGGSTNYADSVKGRFTISRDNAKNTVYLQMNSLKPEDTAVYYCAAREWRSFDYWGQGTQVTVSS | low polyreactivity
25 | QVQLVESGGGLVQAGGSLRLSCAASGSTFYHYTMGWYRQAPGKERELVAAITYSGGRTYYADSVKGRFTISRDNAKNTVYLQKNSLKPEDTAVYYCAATYSTPGAGYYHYWGQGTQVTVSS | high polyreactivity
26 | QDQLVESCGCLVQAGGSLRLSCASSGSTFGTYAMGWYRQAPGKERELVAAISSGDSTTYADSVKGRFTISRDNAKNTVYFQRNSLKQVDTAVYYCAARTFLMRNGGYNYWGEGTQVTVSS | low polyreactivity
27 | QVQLEESGGGLVQAGGSLRLSCAASGSTFLLYAMGRYRQAPGKEMEMVATISWGGDGTYYADSVKGRFTISRDNAKNTVYLQMNSLIPEDTAVYYCAAESYLVQFYFLYYYWGQGTQVTVSS | low polyreactivity
28 | QVQLVESGGGLVQAGGSLRKSCAASGSTFVDYDMGWYRQAPGKERELVAGITTGGSTNYADSVKGRFPISRDNAKNTVYLQMNSLKPEDTAVYYCNADSYPILVPDYLYYWYEYWGQGTQVTVSS | low polyreactivity
29 | QDQLVESGGGLVQAGGSLRLTCAASGSIFSANVMGWYRQAPGKERELVAAIRRGGTTYYADSVKGRFTISRDNSKNTVYLQMNRLNPEDSAVYYCATDGIFGSYLRFEVAYDYWGQGTQVTVSS | low polyreactivity
30 | QVQLVESGGGLVQAGGSLRLSCAASGRTYFYNTMGWYRQAPGKESELVARITRGGSTYYADSVKGRFTISRDNAKNTVYLQMPSLKPEDTAFYYCAAGYWRGYFLYGFDYWGQGTQVTVSS | high polyreactivity
31 | QVQLVESGGGLVHAGGSLRLSCAASGLISYRYAMGWYRQAPGKERELVAAISWRGGSTYYADSVKGRFTISRDNAKNTVYLQMNSLKPDDTAVYYCNALGLGLFDYWGQGTQVTVSS | high polyreactivity
32 | QVQLVESGGGLVQAGGSLRLSCAASGSTFYYNAMGWYRQAPGKERELVAAISKRGGTTSYADSVKGRFTISRDNAKNTVYLQMNSLKPEDTADYYCADQTYLRQYYRYYWGQGTQVTVSS | high polyreactivity
33 | QVQLVESGGGLVQAGGSLRLSCAASGFTFAVYDMGWYRQAPGKERELVAVISSVGSTNYADSVKGRFTISRDNAKNTVYLQMNSLKPEDTAVYYCNAVYWYRDRWYQTGYGYWGQGTQVTVSS | high polyreactivity
34 | QVQLVESVGGLGQAGGSLRLSCASSGFTFARYAMAWYIQAPGKERELVAAISGSGSTYYADSVKGRFTISRDNAKNSVYLQMNSLKTEDTAVYYCNAGNFGRFGFWGQGTQVTVSS | high polyreactivity
35 | QVQLVESGGGLVQAGGSLRLSCAASGRTFGTYAIGWYRQAPGKERELVAAITGSGDRTYYADSVKGRFTISRDNAKNTVYLQMNSLKPEDTAVYYCAAYSDRSYGFWGQGTQVTVSS | low polyreactivity
36 | QVQLVESGGGIVQAGGSLRISFAASGFTFLGNAMGWYRQEPGKERELVARISTRGGTTYYADSVKGRFTISRDNAKYTVYFQMNRLKPEDTAVYYCAKKYYLYSPYRTGYDYWGQGTQVTVSS | high polyreactivity
37 | QVQLVESGGGLVQAGGSLRLSCAASGRIFAGYAMGWYRQAPGKERELVAAIRSGGSTNYADSVKGRFTISRDNAKNTVYLQMNSLKPEDTAVYYCAAETPVIPWDEMDYWGQGTQVTVSS | low polyreactivity
38 | QVQLVDSGGGLVQAGGSLRLSCAASGRIFPRNAMGWYRQAPGKERELVATIRSSTYYADSVKGRFTISRDNAKNTVYLQMNSLKPEDTAVYYCNVRLSYSYISPSDWNFDYWGQGTQVTVSS | low polyreactivity
39 | QVQLVESVGGLFQAGGSIRLSCAASGRTFFVYAMGWYRQAPGKERVLVAVISFTVDSTFYEDSVKGRFTISRDNAKNTVYLQMNSLKPEDTAVYYCAADVRRVFSKYSYYLYFDLDYWGQGTQVTVSS | low polyreactivity
40 | QVQLQESGGGLVQAGGRLRLSCAASGNIFEADIMGWYNKAQGKERELVASITDGGSTNYADSVKGRFTINRYNAKNNVYLQMNSLKPEDTAVYYCAAIAYPDIPTYFDYDSDYFYWGQGTQVTVSS | high polyreactivity
41 | QVQLVESGGGLVQAGGSLRLSCAASGLSFGDYTMGWYRQAPGKERELVAAITGSGASTYYADSVKGRFTISRDNAKNTVYLQMTRLKPEDTAGYYCAAERTPSYRAYDYWGQATQVTVSS | low polyreactivity
42 | QVQLVESGGGLVQAGGSLRVSCAASGLILAYYDMGWYRQAPGKERELVASITGSGGDTYYADSVKGRFTISRDNAKNTVYLQMNSLKPEDTAVYYCAAEYRNVYWIFGVDYWGQGTQVTVSS | low polyreactivity
43 | QVQLVESGGGLVQAGGSLRLSCAASGRIFVGYAMGWFRQAPGKERELVAAINRSGSSTYYADSVNGRFTISRDNAKNTVYLQMNSLKPEDTAVYYCAARYYPRVRYATYYGSYYWGQGTQVTVSS | high polyreactivity
